Source: patent publication EP4036575A1

Target: mouse recombinant His-calmodulin (mouse), P0DP26

## INLKALAALAKKIL (modifications not checked) [Mastoparan, P01514 1-14]
  Kd: 1.2 nM
